Measured values published in patent US6740739B1, “Substitutional variants of APO-2 ligand” (Genentech, Inc., priority 1998, dated 2004).

Experiments:
9D cells = test: Apoptosis by FACS (PI / FITC-annexin V); assay type: cell-based, human; settings: Apo-2 ligand 3 μg/ml, 24 hours, control 22.5
Experimental: Apoptotic activity of purified, soluble Apo-2 ligand (described in Example 3) was examined using several human lymphoid cell lines. In a first study, the effect of Apo-2 ligand on 9D cells (Genentech, Inc.), derived from Epstein-Barrvirus (EBV)-transformed human peripheral blood B cells, was examined. The 9D cells (5×10^4 cells/well in RPMI 1640 medium plus 10% fetal calf serum) were incubated for 24 hours with either a media control, Apo-2 ligand (3 μg/ml, prepared as described in Example 3 above), or anti-Apo-1 monoclonal antibody, CH11 (1 μg/ml) [described by Yonehara et al., J. Exp. Med., 169:1747-1756 (1989); commercially available from Medical and Biological Laboratories Co.]. […]
The effects of the Apo-2 ligand on the 9D cells, as well as on Raji cells (human Burkitt's lymphoma B cell line, ATCC CCL 86) and Jurkat cells (human acute T cell leukemia cell line, ATCC TIB 152) were further analyzed by FACS. […]
The 9D cells (FIG. 2B), Raji cells (FIG. 2C), and Jurkat cells (FIG. 2D) were incubated (1×10^6 cells/well) for 24 hours with a media control (left panels), Apo-2 ligand (3 μg/ml, prepared as described in Example 3) (center panels), or anti-Apo-1 ligand antibody, CH11 (1 μg/ml) (right panels). The cells were then washed, stained with PI and with fluorescein thiocyanate (FITC)-conjugatedannexin V (purchased from Brand Applications) and analyzed by flow cytometry. […]

[1] = Examination of infused animals for gross toxicity; assay type: in vivo, nude mice; settings: E. coli-expressed Apo-2 ligand 10 mg/kg each day by mini-pump; Day 3
Experimental: In the experiment, the nude mice were injected subcutaneously with HCT116 human colon carcinoma cells (ATCC CCL 247) (1×10^6 cells) on each side of the animal. The tumors were then allowed to grow to reach approximately 1 cm diameter (approximately 10 days). On Day 0, the tumor volume was measured with calipers. Volume was calculated as π/6×ab^2, where a=length and b=width. Then osmotic mini-pumps (available from Alza Corp., Model 1003) were implanted intraperitoncally into each animal. The mini-pumps were loaded with either (1) control vehicle (20 mM Tris pH 7.5, 8% Trehalose. 0.01% Tween-20) or (2) Apo-2 ligand. Five animals in each group received either the control vehicle or Apo-2 ligand. The mini-pumps were calibrated to deliver each day 10 mg/kg Apo-2 ligand (10 mg/ml×2 μl/hour) or 2 μl/hour control vehicle.
On Day 3, the tumor volume was again measured, and the animals were sacrificed. […] There was no change in tumor volume in the vehicle group, but a marked reduction in tumor size occurred in mice infused with the Apo-2L. The treatment with the Apo-2L shrunk the tumors by about 50% over 3 days.

B lymphocytes = test: Apoptosis by FACS in peripheral blood B cells; assay type: cell-based, human; settings: Apo-2 ligand 3 μg/ml, 3 days, mean ±SE
Experimental: (§1) Peripheral blood mononuclear cells (“PBMC&”) were isolated from the blood of human donors by Ficoll density gradient centrifugation using Lymphocyte Separation Medium (LSM®, Organon Teknika). An isolated population of T cells was prepared from the PBMC by removal of B cells through surface Ig binding to an anti-Ig column and removal of monocytes through Fc receptor binding to an Ig column (R & D Systems). An isolated population of B cells was prepared from the PBMC by complement-mediatedelimination of T cells reacted with the anti-CD3 antibody produced by the OKT3 myeloma (ATCC, CRL 8001) and of monocytes reacted with a monocyte-specific antibody produced by the 4F2C13 hybridoma (ATCC, HB 22). Additional monocyte removal was accomplished by adherence to plastic.
The freshly isolated peripheral blood B or T cells (1×10^6 cells/well) were cultured for 3 days in the presence of a media control or Apo-2 ligand (3 μg/ml, prepared as described in Example 3). […] Apoptosis was determined using FACS analysis essentially as described above in Example 4. […] The results are shown in Table 2 below, representing means ±SE of independent experiments [B lymphocytes—9 experiments; T lymphocytes—8 experiments; T lymphocytes plus IL-2-5 experiments], in which 50,000 cells were analyzed per data point. […]

T lymphocytes = test: Apoptosis by FACS in peripheral blood T cells; assay type: cell-based, human; settings: Apo-2 ligand 3 μg/ml, 3 days, mean ±SE
Experimental: as §1
The freshly isolated peripheral blood B or T cells (1×10^6 cells/well) were cultured for 3 days in the presence of a media control or Apo-2 ligand (3 μg/ml, prepared as described in Example 3). For activation, B cells were treated simultaneously with lipopolysaccharide (“LPS”, 1 μg/ml), and T cells were treated with phorbol myristate acetate (“PMA”, 10 ng/ml) plus ionomycin (1 μg/ml) (Sigma). For interleukin-2 (“IL-2”) pretreatment, T cells were cultured for 3-5 days in the presence of IL-2 (50 U/ml) (Genzyme) before exposure to Apo-2 ligand. Apoptosis was determined using FACS analysis essentially as described above in Example 4. However, B cells were gated by anti-CD19/CD20 antibodies (Jackson Immunoresearch), and T cells were gated by anti-CD4/CD8 antibodies (Jackson lmmunoresearch). The results are shown in Table 2 below, representing means ±SE of independent experiments [B lymphocytes—9 experiments; T lymphocytes—8 experiments; T lymphocytes plus IL-2-5 experiments], in which 50,000 cells were analyzed per data point. Statistical analysis was performed using the student t-test. In Table 2, a=p<0.05 and b=p<0.02 relative respective control.

B1: Apo-2L: purified soluble His10-tagged human Apo-2 ligand, residues 114-281, from baculovirus-infected Sf9 cells (Example 3); used in Examples 4-14 (protein)
chain: MGHHHHHHHHHHSSGHIDDDDKHMVRERGPQRVAAHITGTRGRSNTLSSPNSKNEKALGRKINSWESSRSGHSFLSNLHLRNGELVIHEKGFYYIYSQTYFRFQEEIKENTKNDKQMVQYIYKYTSYPDPILLMKSARNSCWSKDAEYGLYSIYQGGIFELKENDRIFVSVTNEHLIDMDHEASFFGAFLVG
For B1, the “% apoptotic cells” value (9D cells) was 92.4%, the “gross evidence of toxicity” value [1] was “did not reveal any gross evidence of toxicity” and the “% apoptolic cells” value (B lymphocytes; LPS 1 μg/ml, control 44.8 ± 2.8, a=p<0.05) was 55.9 ± 3.2^a %. The “% apoptolic cells” value (B lymphocytes; treatment none, control 40.1 ± 4.1, a=p<0.05) was 53.2 ± 3.3^a %, the “% apoptolic cells” value (T lymphocytes; IL-2 pretreatment (50 U/ml, 3-5 days), control 13.7 ± 1.2, b=p<0.02) was 34.5 ± 4.8^b % and the “% apoptolic cells” value (T lymphocytes; PMA/ionomycin, control 40.3 ± 4.4, a=p<0.05) was 54.2 ± 3.3^a %. The “% apoptolic cells” value (T lymphocytes; treatment none, control 6.3 ± 0.6) was 8.2 ± 0.8%.
